From US20110008326A1 (published 2011)

Target: T1, Human, recombinant IL-4R-Fc protein (human, UniProt P24394 26-232)
T1 construct: also called immobilized receptor
T1 sequence: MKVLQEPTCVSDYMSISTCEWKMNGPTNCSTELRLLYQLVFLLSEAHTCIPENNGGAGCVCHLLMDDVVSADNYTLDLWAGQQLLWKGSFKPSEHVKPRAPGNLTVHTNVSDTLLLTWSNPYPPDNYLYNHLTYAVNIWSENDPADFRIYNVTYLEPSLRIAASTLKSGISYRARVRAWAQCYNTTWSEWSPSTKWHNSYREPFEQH
Assay: competition ELISA on IL-4R-Fc coated plates; competitor: 10 ng/ml mouse antibody X2/45
Protocol: Human, recombinant IL-4R-Fc protein was immobilized on ELISA plates at 100 ng/well followed by blocking of free binding sites.

binding result: binds
B1: humanised anti-IL-4R antibody (variable regions SEQ ID NOs: 13 and 14) (antibody, V domains shown)
VH: EVQLVESGGGLVKPGGSLRLSCAASGFTFNTNAMNWVRQAPGKGLEWVARIRSKSNNYATYYADSVKDRFTLSRDDSKNTLYLQMNSLKTEDTAVYYCTRDRGWGAMDYWGQGTTVTVSS
VL: DIQMTQSPSSLSASVGDRVTITCSASQDINNYLNWYQQKPGKAPKLLIYYTSSLHSGVPSRFSGSGSGTDFTLTISSLQPEDFATYYCQQFSNLPWTFGGGTKLEIK
notes: Full length antibody made in Hek 293T cells; light chain of kappa type; also called humanised antibody; humanised version of X2/45
